Laboratory results published in patent publication US20220380801A1, “TRIPARTITE SYSTEMS FOR PROTEIN DIMERIZATION AND METHODS OF USE” (priority 2019, published 2022).
Like-named read-outs stand apart in the source and are kept apart here.

Legend:
Conditions in all cases: remark: other sources report otherwise
[1] = target: T1, HCV NS3/4A PR (S139A):simeprevir complex (Hepatitis C virus subtype 1a)
[2] = target: T1, HCV NS3/4A PR (S139A):simeprevir …; remark: listed apart in the source
[3] = target: T1, HCV NS3/4A PR (S139A):simeprevir …; remark: listed apart in the source
[4] = target: T1, HCV NS3/4A PR (S139A):simeprevir …; remark: listed apart in the source
[5] = target: T1, HCV NS3/4A PR (S139A):simeprevir …; remark: listed apart in the source
[6] = target: HCV NS3/4A PR K136H (S139A background), in the presence of simeprevir (Hepatitis C virus subtype 1a)
[7] = target: T1, HCV NS3/4A PR (S139A):simeprevir …; assay: phage ELISA
[8] = target: T1, HCV NS3/4A PR (S139A):simeprevir …; assay: HTRF, with simeprevir
[9] = target: T1, HCV NS3/4A PR (S139A):simeprevir …; assay: SPR Biacore 8K, PRSIM immobilised, protease flowed with 10 nM simeprevir

B1: PRSIM_23 (designed binder)
chain: RLDAPSQIEVKDVTDTTALITWVDPRYDDIWWFELTYGIKDVPGDRTTIKLYLNDPYYSIGNLKPDTEYEVSLISYTGDSYSRSGSNPAKITFKTGL
Simeprevir EC50 for induction of heterodimerisation [1]: 4.53 nM | Kd [2]: 5.4 nM | Simeprevir EC50 for induction of heterodimerisation [3]: 4.03 nM | EC50 (read off the curve) [4]: 2 nM | EC50 (read off the curve) [5]: 3 nM | EC50 (read off the curve) [6]: 4 nM | Binding fold change [(HCV protease + Simeprevir binding)/HCV protease alone] [7]: 23.8 fold | HTRF max. signal (% delta F) [8]: 1570 % delta F | Kd [9]: 6.3 nM | koff [9]: 0.0318 s⁻¹ | kon [9]: 5.03e+06 M⁻¹ s⁻¹
